Measurements taken from patent US20240150474A1 (Regeneron, published 2024).
Substitutions are numbered along the chain they refer to. Values belong to the molecule of their own block, whether it stands above or below them.

Experiments:
[1] = molecular target: human ACVR1 extracellular domain expressed with a C-terminal myc-myc-hexahistidine tag (human); assay: BLI (Octet) cross-competition: hACVR1.mmh captured on anti-His biosensor, saturated with 1st mAb REGN 5168 (50 ug/mL), then dipped into 2nd mAb Isotype Control (50 ug/mL); white cell
[2] = molecular target: human ACVR1 extracellular domain expressed with a C-terminal myc-myc-hexahistidine tag (human); assay: BLI (Octet) cross-competition: hACVR1.mmh captured on anti-His biosensor, saturated with 1st mAb REGN 5167 (50 ug/mL), then dipped into 2nd mAb Isotype Control (50 ug/mL); white cell
[3] = molecular target: human ACVR1 extracellular domain expressed with a C-terminal myc-myc-hexahistidine tag (human); assay: BLI (Octet) cross-competition: hACVR1.mmh captured on anti-His biosensor, first dipped into 1st mAb Isotype Control (50 ug/mL), then into 2nd mAb Isotype Control (50 ug/mL); dotted cell (self-self)
[4] = molecular target: human ACVR1 extracellular domain expressed with a C-terminal myc-myc-hexahistidine tag (human); assay: BLI (Octet) cross-competition: hACVR1.mmh captured on anti-His biosensor, saturated with 1st mAb REGN 5166 (50 ug/mL), then dipped into 2nd mAb Isotype Control (50 ug/mL); white cell
[5] = molecular target: full length human ACVR1 (amino acids 1-509, R206H, of accession #Q04771) on HEK293/BRE-luc/hACVR1-R206H-clone H2 cells (human) (UniProt Q04771); assay: flow cytometry, 70 nM antibody on HEK293/hACVR1-R206H cells, 4C
[6] = molecular target: full length human ACVR1 (amino acids 1-509, R206H, of accession #Q04771) on HEK293/BRE-luc/hACVR1-R206H-clone H2 cells (human) (UniProt Q04771); assay: flow cytometry, secondary antibody alone on HEK293/hACVR1-R206H cells, 4C
dimeric human BMPR1A = molecular target: T1, dimeric human BMPR1A (human, UniProt P36894 24-152, limits assumed); assay: SPR Biacore T200, mAb captured by anti-human Fab, 100 nM dimeric receptor injected, 25C
T1 construct: Construct and dimerising part not described; also called Human Receptor BMPR1A
Description: (§1) ACVR1 mAbs were tested for cross-reactivity to a panel of bone morphogenic protein type 1 receptors including human and mouse ACVR1, BMPR1A, and BMPR1B, as well as ACVRL1 on a Biacore T200 as follows. In order to measure the specificity of ACVR1 mAbs, ACVR1 mAbs were captured with anti-human Fab immobilized on a CM5 chip. 100 nM or 10 nM of dimeric human or mouse ACVR1, ACVRL1, BMPR1A or BMPR1B were injected at 30 μL/min for 2 min (duplicate injections) and the experiment was performed at 25° C. Binding of different receptors to the captured mAb was determined using Scrubber 2.0c software.

dimeric human ACVR1 = molecular target: T2, dimeric human ACVR1 (human, UniProt Q04771 21-123, limits assumed); assay: as above
T2 construct: ACVR1'; also called Human Receptor ACVR1
T2 sequence (looked up): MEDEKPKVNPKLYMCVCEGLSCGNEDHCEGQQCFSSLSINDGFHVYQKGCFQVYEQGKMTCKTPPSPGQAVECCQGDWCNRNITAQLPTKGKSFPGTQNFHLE
Description: as §1

dimeric human ACVRL1 = molecular target: T3, dimeric human ACVRL1 (human, UniProt P37023 22-118, limits assumed); assay: as above
T3 construct: Construct and dimerising part not described; also called Human Receptor ACVRL1
Description: as §1

dimeric mouse ACVRL1 = molecular target: T4, dimeric mouse ACVRL1 (mouse, UniProt Q61288 23-119, limits assumed); assay: as above
T4 construct: Construct and dimerising part not described; also called Mouse Receptor ACVRL1
T4 sequence (looked up): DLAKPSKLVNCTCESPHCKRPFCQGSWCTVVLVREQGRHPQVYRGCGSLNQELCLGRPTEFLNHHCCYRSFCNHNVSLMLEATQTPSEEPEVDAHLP
Description: as §1

dimeric mouse BMPR1A = molecular target: T5, dimeric mouse BMPR1A (mouse, UniProt P36895 24-152, limits assumed); assay: as above
T5 construct: Construct and dimerising part not described; also called Mouse Receptor BMPR1A
Description: as §1

dimeric human BMPR1B = molecular target: T6, dimeric human BMPR1B (human, UniProt O00238 14-126, limits assumed); assay: as above
T6 construct: Construct and dimerising part not described; also called Human Receptor BMPR1B
T6 sequence (looked up): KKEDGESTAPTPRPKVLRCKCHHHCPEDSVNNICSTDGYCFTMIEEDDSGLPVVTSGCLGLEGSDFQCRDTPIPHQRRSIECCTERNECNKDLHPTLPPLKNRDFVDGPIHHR
Description: as §1

dimeric mouse ACVR1 = molecular target: T7, dimeric mouse ACVR1 (mouse, UniProt P37172 21-123, limits assumed); assay: as above
T7 construct: also called Mouse Receptor ACVR1
T7 sequence (looked up): T2 sequence (looked up) with M1V, P10Q
Description: as §1

dimeric mouse BMPR1B = molecular target: T8, dimeric mouse BMPR1B (mouse, UniProt P36898 14-126, limits assumed); assay: as above
T8 construct: Construct and dimerising part not described; also called Mouse Receptor BMPR1B
T8 sequence (looked up): T6 sequence (looked up) with V16I, L51M, N102D, R113K
Description: as §1

[7] = molecular target: T9, mouse ACVR1 extracellular domain expressed with a C-terminal myc-myc-hexahistidine tag (mouse); assay: SPR, mACVR1.mmh captured by anti-myc antibody on CM5, Fab injected, 37C
T9 construct: also called mACVR1-mmh; mACVR1.mmh
T9 chain: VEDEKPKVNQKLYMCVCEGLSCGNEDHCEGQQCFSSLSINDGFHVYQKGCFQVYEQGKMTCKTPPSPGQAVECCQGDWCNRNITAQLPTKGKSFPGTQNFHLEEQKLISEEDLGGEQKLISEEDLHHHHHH
Description: (§2) In order to measure the binding constants of ACVR1 Fabs, mACVR1.mmh was captured with a myc antibody (REGN 642) immobilized on a CM5 chip. Different concentrations of ACVR1 Fabs were injected over mACVR1.mmh at 37° C. Binding rate constants and equilibrium dissociation rate constants were calculated by fitting data using 1:1 Langmuir binding model (Scrubber 2.0c).

[8] = molecular target: T10, human ACVR1 extracellular domain expressed with a C-terminal myc-myc-hexahistidine tag (human); assay: SPR, hACVR1.mmh captured by anti-myc antibody on CM5, Fab injected, 37C
T10 construct: also called hACVR1-mmh; hACVR1.mmh
T10 chain: T9 chain with V1M, Q10P
Description: as §2, with “hACVR1.mmh” for “mACVR1.mmh”, “(REGN642)” for “(REGN 642)”

T3 sequence (P37023 22-118 limits assumed): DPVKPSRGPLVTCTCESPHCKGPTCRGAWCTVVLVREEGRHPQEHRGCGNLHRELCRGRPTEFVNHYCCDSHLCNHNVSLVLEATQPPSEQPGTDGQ
T5 sequence (P36895 24-152 limits assumed): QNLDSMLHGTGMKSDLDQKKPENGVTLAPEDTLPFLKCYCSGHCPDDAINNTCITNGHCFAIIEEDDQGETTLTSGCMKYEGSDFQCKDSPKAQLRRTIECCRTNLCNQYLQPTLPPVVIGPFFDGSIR
T1 sequence (P36894 24-152 limits assumed): as the sequence (P36895 24-152 limits assumed) above, with L16S, P21S, T74A counted along it

- wavelength shift of 2nd mAb binding [1]: 0.04 nm
- wavelength shift of 2nd mAb binding [2]: 0.05 nm
- wavelength shift of 2nd mAb binding [3]: 0.07 nm
- wavelength shift of 2nd mAb binding [4]: 0.05 nm
Molecule: isotype-matched negative control (Example 5) (antibody)

- MFI-Normalized to Unstained Control [5]: 3 fold
Molecule: human IgG control antibody

- MFI-Normalized to Unstained Control [6]: 1 fold
Molecule: Alexa Fluor-647 conjugated secondary antibody (Jackson ImmunoResearch, anti-human #109-607-003)

- 100 nM Human Receptor Binding (dimeric human BMPR1A): 1 RU
- 100 nM Human Receptor Binding (dimeric human ACVR1): 11 RU
- 100 nM Human Receptor Binding (dimeric human ACVRL1): 2 RU
- 100 nM Mouse Receptor Binding (dimeric mouse ACVRL1): 2 RU
- 100 nM Mouse Receptor Binding (dimeric mouse BMPR1A): 7 RU
- 100 nM Human Receptor Binding (dimeric human BMPR1B): 19 RU
- 100 nM Mouse Receptor Binding (dimeric mouse ACVR1): 8 RU
- 100 nM Mouse Receptor Binding (dimeric mouse BMPR1B): 1 RU
Molecule: Isotype control (Example 4) (antibody)

- Kd [7]: 0.178 nM
- koff [7]: 9.72e-05 s⁻¹
- kon [7]: 545000 M⁻¹ s⁻¹
- t1/2 [7]: 1.98 h
- Kd [8]: 0.17 nM
- koff [8]: 9.36e-05 s⁻¹
- kon [8]: 549000 M⁻¹ s⁻¹
- t1/2 [8]: 2.05 h
B1: REGN 5167 Fab (Fab, V domains shown)
VH: QLQLQESGPGLVKPSETLSLTCTVSGGSITSSSYYWAWIRQPPGKGLEWIGKIYYSGSTHYNPSLKSRVTISVDTSKNQFSLKLSSVTAADTAVYYCARVGGHGYGDSAGLAFDIWGQGTMVTVSS
VL: EIVLTQSPGTLSLSPGERATLSCRASQSVSSAFLAWYQQKPGQAPRLLIYGASYRHTGIPDRFSGSGSGTDFTLTISRLEPEDFAVYYCQHYGVGPRTFGGGTKVEIK
notes: also called ACVR1 Fab

- Kd [7]: 0.16 nM
- koff [7]: 0.000105 s⁻¹
- kon [7]: 653000 M⁻¹ s⁻¹
- t1/2 [7]: 1.83 h
- Kd [8]: 0.154 nM
- koff [8]: 0.000106 s⁻¹
- kon [8]: 690000 M⁻¹ s⁻¹
- t1/2 [8]: 1.82 h
B2: REGN 5166 Fab (Fab, V domains shown)
VH: QVQLVESGGGVVQPGRSLRLSCAASGFTFSAYWMHWVRQAPGKGLEWVAVISYDGSNKYYADSVKGRFTISRDHSKNTLYLQMNSLRAEDTAVYYCAKGDAYDSWRILLGGDYYGMDVWGQGTTVTVSS
VL: EIVLTQSPGTLSLSPGERATLSCRASQSVSSSYLAWYQQKPGQAPRPLIYGASSRATGIPDRFSGSGSGTDFTLTISRLEPEDFAVYYCQQGGDAPPYTFGGGTKVEIK
notes: also called ACVR1 Fab
